Assay: yeast display, Sf9 membrane polyspecificity reagent, FACS + sequencing; frameworks hold sequencing errors
Outline: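 Synthetic nanobody libraries on Saccharomyces cerevisiae BJ5465 were galactose-induced for 36–48 hours, stained 1 hour at 4 °C with 10% biotinylated, detergent-solubilized Sf9 membrane reagent and enriched on streptavidin microbeads. FACS then separated cells into low and high (top ~1%) gates by anti-HA (expression) and streptavidin (reagent binding) fluorescence. Genes were colony-PCR amplified, MiSeq 2 × 250 sequenced and CDR-length filtered. A clone's polyreactivity label is that of its gate of origin.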

| Sequence | polyreactivity (PSR sort gate) |
| --- | --- |
| QVQLVESGGGLVQAGRSHRLSCAASGSTYANTMGWYIQAPGKERELDAAITYTGGSTYYADSVKGRFTISRDNAKNTVYLQMNSLKPEDTAVYYCAADAQAPPGGFKEYDYWGQGTQVTVSS | low polyreactivity |
| QVQLVESGGGLVQAGRSIRLSCAASGRTFLGNSLGWYRQAPGKEMELVAAITRNGGGTYYPDSVKGRFTISRDNAKNTVYLQMNSLKPEDTAVYYCAALTSLFWRGGGLDYWGQGTQVTVSS | high polyreactivity |
| QVQLVESGGGLVQAGRSLLLSCAASGRIFDGYAKGRYRQAPGKERELVAAINSNDGTTYYADSVKGRFTISRDKAKHTVYVQMNSLKPEDTAVYYCAKVSYNAWSYGPQMDYWGQGTQVTVSS | low polyreactivity |
| QVQLVESGGGLVQAGRSLPLSCAASGRTFRPNAMGWYRQAPGKERELVAVSSWRGGRTYYADSVKGRFTISRDNAKNTVYLQMNSLKPEDTAVYYCAAGPTSRRWYDYWGQGTQVTVSS | high polyreactivity |
| QVQLVESGGGLVQAGRSLRLICAASGSTFKRYAMGWYRQAPGKERELVAAITWTGGRTYYADSVKGRFTISRDNANYTVYLQMNSLKPEDTAVYYCAADDPHTAYGYWGQGTQVTVSS | high polyreactivity |
| QVQLVESGGGLVQAGRSLRLSCAASGFIFWRYAMGWYRQAPGKERELVAAISSGRNTKYADSVKGRFTISRDNAKTTVYLQMNSLKPEDTAVYYCAVLGKYLWSATNRFPGSYDSWGHGTQVTVSS | high polyreactivity |
| QVQLVESGGGLVQAGRSLRLSCAASGFTFIRYDMGWYRQALGKETELVATITRRGGSTYYADSVKGRFTISRDNAKNTVYLQMNSLKPEDTAVYYCNRDYVTYGKYYYWGQGTQVTVSS | high polyreactivity |
| QVQLVESGGGLVQAGRSLRLSCAASGFTFLVYAMGWYRQAPGTERELVAAMSNGGSTNYADSVKGRFTITRDTAKNTVYLHMNSLKPEDTAVYYCAADDPRDHWYTAMDYWGQGTQVTVSS | low polyreactivity |
| QVQLVESGGGLVQAGRSLRLSCAASGNIFIRYAMGWYRQAPGKEREVVAAISQSGGGTSYADSVKGRFTISRDNAKNTVYLQMNSLKPEDTAVYYCNARYWRYPWRFGAWVGHDYWGQGTQVTVSS | low polyreactivity |
| QVQLVESGGGLVQAGRSLRLSCAASGRIFSRYTMGWYRQAPGKERELVAANSYRGGSTYYADSVKGRFTISRDNAKNTVYLQMNSLKPEDTEVYYCAARVQAIYRYDYCGQGTQVTVSS | high polyreactivity |
| QVQLVESGGGLVQAGRSLRLSCAASGRIFYGYAMGWYRQAPGRERELVAANTYIGGTYYADSVKGRFTISRDNAKNTVYLQMKSLKPEDTAVYYCATEPFYTYGYYTYPYWYDYWGQATQVTVSS | low polyreactivity |
| QVQLVESGGGLVQAGRSLRLSCAASGSIFGFYAMGCYRQAPGKERELVAASTVSDGTTYYADSVKGRFTISRDNAKNSFFFLMNSVKPEDTVVYYCAGDVFRQHEYYYWGQGTQVTVSS | low polyreactivity |
| QVQLVESGGGLVQAGRSLRLSCAASGSILGFYAMGWYRHAPGKERELVAAIRWRAGSTYYADSVKGRFTISRDNAKNTVNLQMNSLKPEDTAVYYCAAPTKYRSRRYYWGQGTQVTVSS | high polyreactivity |
| QVQLVESGGGLVQAGRSLRLSCPASGRTVVYNSLGWYRQAPGKETEFVAAITRSRDSTYYADSVKGRFTISRDNASNPVYLEMNSLKPEDSAAYYCNAVSKRYWLMDYWGQGTQVTVSS | high polyreactivity |
| QVQLVESGGGLVQAGRSNRISCAASGGIFSYYAMGWYRQAPGKEREFVAAIDWGGGSTYYADSLKGRFTLSRDNAKNTVYLQMNSLKPEDTAVYYCAAEIYPIGWDDYDYWGQGTQVTVSS | low polyreactivity |
| QVQLVESGGGLVQAGRTLRLSCAASGRLFSHNAMGWYRQAPGKEREWVAAISGSGGSTYYADSVKGRFTISRDNAKNTVYLQMNSLKPEDTAVYYCAARFAVLVTRRFYYWGQGTQVTVSS | high polyreactivity |

| Sequence | polyreactivity (PSR sort gate) |
| --- | --- |
| QVQLVESGGGLVQAGRTLRLSCAATGFIIVHNAMGWYRQPPGKERELVAAITSRGRTYYADSVKGRFTISRDHAKNTVYLQMNSLKPEDTAVYYCNPYWRGDYRYDSWGQGTQVTVSS | high polyreactivity |
| QVQLVESGGGLVQAGVILRLSCAASGRIITTYAMGRYRQAPGKERELVAAISARGGRTYYADSVKGRFTISRDNAKNTVYLQMNSLKPEDTAVYYCAAVSIQAYTRRQYDWGQGTQVTVSS | high polyreactivity |
| QVQLVESGGGLVQAGVRLRLSCAASGFIFVVNAMGWYRPATRKEREFVAVISSSTGSTYYADSVKGRFTISRDNAKYTVYLPMNSLKPEDTAVYYCAAASRRRRPLKRMDYWGQGTQVTVSS | low polyreactivity |
| QVQLVESGGGLVQAGVRLRLSCPASGTTFYYNAMGRYRQAPGKERELVAAITSGGRTKYADSVKGRFTISRDNAKNTVYLQKNRLKPEDTAVYYCNTYNRRSGTLPKAYDYWGQGTQVTVSS | high polyreactivity |
| QVQLVESGGGLVQAGVSLRISCAASGFTFSRNAMGWYRQAPGKESELVAAITWSGGRSYYADSVKGRFTISGDNAKNPVYLQMNSLKPEDTAVYYCAARKYPLRSAYDYWGPGTQVTVSS | low polyreactivity |
| QVQLVESGGGLVQAGVSLRISSAASGLIFGSNAMGWYRQAPGIERELVAAISWRGGSTYYADSVKGRFTISRDNAKKTVSCQMNSLKPEDTAVYYCAKYPYYYYWFNYCGQGTQVTVSS | high polyreactivity |
| QVQLVESGGGLVQAGVSLRLICAASGFIFPTKVMGWYRQAPATEREFVASITWRGGGTFYADSVKGRFTISRDNAKNTVYLQMNRLKPEDTAVYYCAAGRSWSSFWKYDYWGQGTQVTVSS | low polyreactivity |
| QVQLVESGGGLVQAGVSLRLICAASGSIFITNFMGWYRQAPGKERELVAVISASGGSTYYADSVKGRFTISRDNAKNNVYLQMNSMKPEDTAVYYCARTQRRYSYGQMGYWGQGTQVTVSS | high polyreactivity |
| QVQLVESGGGLVQAGVSLRLRCAASASILSYYAMGWYRHAPGKERELVAAISRSGCTTYYADSVKGRFTISRDYAKNTVYLQMNSLIPEDTAVYYCAAVDRYYAYRDYYYWGQGTQVTVSS | high polyreactivity |
| QVQLVESGGGLVQAGVSLRLSCAASGFIFRPYTMGWYRLAPGKERELVAAISRSGDSTYYADSVKGRFTISRDNAKNTVYLQMNSLKPEDTAVYYCAAYYNGRVGPYYYWGQGTQVTVSS | high polyreactivity |
| QVQLVESGGGLVQAGVSLRLSCAASGFNFVFYDMGWYRQAPGKERELVAGITRNDGSTYYADSVKGRFKISRDNAKNTVYLQMNSLKPEDTAVYYCAADRVRRNDKLAYDYWGQGTQVTVSS | low polyreactivity |
| QVQLVESGGGLVQAGVSLRLSCAASGFTFQAYAMGWYRQAPGKERELVAAIRSRGDSTYYADSVKGRFTISRDNSKNTVYLQMNSLKPEDTAVYYCNVLGYSYWGQGTQVTVSS | high polyreactivity |
| QVQLVESGGGLVQAGVSLRLSCAASGFTFYYYAMVRNRQAPGKERELVAAITGSGGGTYYADSVKGRFTISRDYAKNTVYLQKNSLKPEDTAVYYCNALYVSTSDFVYWGQGTQVTVSS | high polyreactivity |
| QVQLVESGGGLVQAGVSLRLSCAASGGILYWYAMGWSRQAPGKERELVAAIDWTGGSTYYADSVKGRFTISRDNAKNTVYLQMNSLKPEDTAVYYCAADSYWGSGVVPGYDYWGQGTQVTVSS | low polyreactivity |
| QVQLVESGGGLVQAGVSLRLSCAASGITFARYTMGWYRQAPGKERELVAAINTSGGSTRYADSVKGRFTISRDNAKNTVYLQMNSLKPEDTAVYYCAARRKHSLFGKRYYWGQGTQVTVSS | high polyreactivity |

Source: the nanobody polyreactivity screen of Harvey et al. (2022)
